# Test results published in article PMC1713233, “Implantation Serine Proteinases heterodimerize and are critical in hatching and implantation” (BMC Developmental Biology, 2006).
# B1: TSI: Trypsin Soybean Inhibitor, obtained from Sigma Aldrich (protein, UniProt P01070 25-205, looked up)
# Trypsin inhibitor A: DFVLDNEGNPLENGGTYYILSDITAFGGIRAAPTGNERCPLTVVQSRNELDKGIGTIISSPYRIRFIAEGHPLSLKFDSFAVIMLCVGIPTEWSVVEDLPEGPAVKIGENKDAMDGWFRLERVSDDEFNNYKLVFCPQQAEDDKCGDIGISIDHDDGTRRLVVSKNKPLVVQFQKLDKESL
# Molecular target: T1, ISP1-ISP2 enzyme complex (Mus musculus, UniProt Q924N9+Q99MS4)
# T1 construct: The native ISP enzyme complex was purified from mouse uterine tissue homogenates; from tissue; host or cells: uterus of pregnant CD1 mice (4.5-6.5 dpc)
# T1 sequence (Q924N9 27-274): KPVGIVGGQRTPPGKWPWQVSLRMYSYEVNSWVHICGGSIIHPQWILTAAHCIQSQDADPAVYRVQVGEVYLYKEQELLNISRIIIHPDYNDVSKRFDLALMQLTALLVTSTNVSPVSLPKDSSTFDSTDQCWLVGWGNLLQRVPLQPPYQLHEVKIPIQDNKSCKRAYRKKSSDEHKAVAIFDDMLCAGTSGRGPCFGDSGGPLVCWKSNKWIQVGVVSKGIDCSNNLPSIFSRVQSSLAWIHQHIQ
# T1 sequence (Q99MS4 18-279): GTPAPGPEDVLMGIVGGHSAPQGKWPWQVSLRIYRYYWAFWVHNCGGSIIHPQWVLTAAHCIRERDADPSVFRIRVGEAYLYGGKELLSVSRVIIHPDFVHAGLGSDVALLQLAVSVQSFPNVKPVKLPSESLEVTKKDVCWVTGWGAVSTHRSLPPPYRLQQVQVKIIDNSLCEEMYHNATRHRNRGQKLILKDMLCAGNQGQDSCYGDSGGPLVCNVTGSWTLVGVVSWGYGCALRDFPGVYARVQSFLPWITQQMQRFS
# Assay: Inhibition of proteolytic activity of ISP enzyme complex, chromogenic assay with BAPNA as substrate
# Assay type: biochemical
# Protocol: Many general serine proteinase inhibitors were tested in order to identify suitable ISP inhibitors when BAPNA was used as a substrate. These included Benzamidine hydrochloride, 4-(Amidino-Phenyl)-Methane-Sulfonyl Fluoride (APMSF), L-1 Chloro-3- [4-tosyl-amido]-7-amino-2-heptanone. HCl (TLCK), Trypsin Soybean Inhibitor (TSI), Bis (5-amidino-2-benzimadozolyl) methane (BABIM), Gabexate mesylate, Nafamostat, and the kunitz family serpins Uterine Plasmin-Trypsin Inhibitor (UPTI) and Secretary Leukocyte proteinase inhibitor (SLPI).
# Only inhibitors specific for trypsin-like serine proteinases were able to inhibit the ISPs (Fig. 4B and Additional file 2. Table 1). IC50 (concentration of an inhibitor capable of inhibiting the enzyme activity by 50%) values were obtained by plotting inhibition data, which were extrapolated into Cheng and Prusoff's equation to derive the dissociation constant (Ki).
# Chromogenic assays were carried out using the p-Nitroanilide conjugated peptidic substrates. The reaction conditions used were: 4 mM BAPNA (substrate), in 25 mM Tris.Cl (pH 8.0) and 10 mM EDTA reaction buffer, in a total reaction volume of 0.5 mL. The reactions were carried out at room temperature in a glass cuvette (1 cm path length), and scanned at wavelength maxima of 405 nm using a spectrophotometer. 1 Unit of enzyme is defined as enzyme activity sufficient for the breakdown of 1 μM of substrate/ml/min. The affinity of ISP complex with various substrates was characterized by measuring enzyme activity at differing substrate concentrations and plotting enzyme activity [V] vs. substrate concentration [S]. The Km was calculated using the Michaelis Menton equation (Km = [S] at 1/2 Vmax).
# IC50 values were derived by plotting enzyme activity (V) vs. inhibitor concentration [I]. Dissociation constants (Ki) values for different inhibitors were determined by using the Cheng and Prusoff equation (Ki = IC50/1 + [S]/Km).
molecule,measurement,setting,value
B1,IC50,"4 mM BAPNA substrate, 25 mM Tris.Cl pH 8.0, room temperature, read-out: IC50%",8 µM
same,Affinity for ISP enzyme,"Fig. 4B, compared to Benzamidine",relatively high affinity
same,Influence on ISP activity,general trypsin inhibitors,inhibitory influence
